Test results published in patent publication US20230158141A1 (YAFEI SHANGHAI BIOLOG MEDICINE SCIENCE AND TECHNOLOGY, published 2023).
Numbering of substitutions follows the chain as printed. Each block holds one binder with its values, some of them ahead of it.

Biological target: T1, IL-10R1-Fc (UniProt Q13651 22-235, limits assumed)
T1 sequence (looked up): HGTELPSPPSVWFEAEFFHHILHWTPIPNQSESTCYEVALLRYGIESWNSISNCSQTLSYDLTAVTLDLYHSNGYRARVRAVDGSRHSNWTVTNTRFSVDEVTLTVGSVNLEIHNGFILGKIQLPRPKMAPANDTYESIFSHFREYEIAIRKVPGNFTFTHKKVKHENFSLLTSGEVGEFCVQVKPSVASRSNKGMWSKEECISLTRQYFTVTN
Assay: ELISA, IL-10R1-Fc coated

Binding recovery (>60%): 90%
B1: IL-10 Gln42Cys-R4-19 (ligand, human, UniProt P22301 19-178, looked up)
chain: SPGQGTQSENSCTHFPGNLPNMLRDLRDAFSRVKTFFQMKDCLDNLLLKESLLEDFKGYLGCQALSEMIQFYLEEVMPQAENQDPDIKAHVNSLGENLKTLRLRLRRCHRFLPCENKSKAVEQVKNAFNKLQEKGIYKAMSEFDIFINYIEAYMTMKIRN
modifications: R4-19 on Cys 42
notes: mature

Decreased fold of binding to ligand after Conjugating with S48: 8 fold
B2: IL-10 Leu19Cys-S48 (ligand, human, UniProt P22301 19-178, looked up)
chain: B1 chain with L19C, C42Q
modifications: S48 on Cys 19
notes: mature

Decreased fold of binding to ligand after Conjugating with S48: 9 fold
B3: IL-10 Ile158Cys-S48 (ligand, human, UniProt P22301 19-178, looked up)
chain: B1 chain with C42Q, I158C
modifications: S48 on Cys 158
notes: mature

Decreased fold of binding to ligand after Conjugating with S48: 3 fold
B4: IL-10 Ile69Cys-S48 (ligand, human, UniProt P22301 19-178, looked up)
chain: B1 chain with C42Q, I69C
modifications: S48 on Cys 69
notes: mature

Decreased fold of binding to ligand after Conjugating with S48: 18 fold
B5: IL-10 Gln42Cys-S48 (ligand, human, UniProt P22301 19-178, looked up)
chain: B1 chain
modifications: S48 on Cys 42
notes: mature

Binding recovery (>60%): 97.3%
B6: IL-10 Ile69Cys-R4-6 (ligand, human, UniProt P22301 19-178, looked up)
chain: B1 chain with C42Q, I69C
modifications: R4-6 on Cys 69
notes: mature

Decreased fold of binding to ligand after Conjugating with S48: 3 fold
B7: IL-10 Gly135Cys-S48 (ligand, human, UniProt P22301 19-178, looked up)
chain: B1 chain with C42Q, G135C
modifications: S48 on Cys 135
notes: mature

Decreased fold of binding to ligand after Conjugating with S48: 3 fold
B8: IL-10 Leu26Cys-S48 (ligand, human, UniProt P22301 19-178, looked up)
chain: B1 chain with L26C, C42Q
modifications: S48 on Cys 26
notes: mature

Decreased fold of binding to ligand after Conjugating with S48: 12 fold
B9: IL-10 Leu23Cys-S48 (ligand, human, UniProt P22301 19-178, looked up)
chain: B1 chain with L23C, C42Q
modifications: S48 on Cys 23
notes: mature

Decreased fold of binding to ligand after Conjugating with S48: 13 fold
B10: IL-10 Glu151Cys-S48 (ligand, human, UniProt P22301 19-178, looked up)
chain: B1 chain with C42Q, E151C
modifications: S48 on Cys 151
notes: mature

Decreased fold of binding to ligand after Conjugating with S48: 13 fold
B11: IL-10 Glu142Cys-S48 (ligand, human, UniProt P22301 19-178, looked up)
chain: B1 chain with C42Q, E142C
modifications: S48 on Cys 142
notes: mature

Binding recovery (>60%): 82.5%
B12: IL-10 Glu151Cys-R4-12 (ligand, human, UniProt P22301 19-178, looked up)
chain: B1 chain with C42Q, E151C
modifications: R4-12 on Cys 151
notes: mature

Binding recovery (>60%): 95.3%
B13: IL-10 Leu19Cys-R4-7 (ligand, human, UniProt P22301 19-178, looked up)
chain: B1 chain with L19C, C42Q
modifications: R4-7 on Cys 19
notes: mature

Decreased fold of binding to ligand after Conjugating with S48: 4 fold
B14: IL-10 Glu50Cys-S48 (ligand, human, UniProt P22301 19-178, looked up)
chain: B1 chain with C42Q, E50C
modifications: S48 on Cys 50
notes: mature

Binding recovery (>60%): 90.2%
B15: IL-10 Gly17Cys-R4-1 (ligand, human, UniProt P22301 19-178, looked up)
chain: B1 chain with G17C, C42Q
modifications: R4-1 on Cys 17
notes: mature

Binding recovery (>60%): 99.5%
B16: IL-10 Gly135Cys-R4-1 (ligand, human, UniProt P22301 19-178, looked up)
chain: B1 chain with C42Q, G135C
modifications: R4-1 on Cys 135
notes: mature

Binding recovery (>60%): 81.7%
B17: IL-10 Ile158Cys-R4-6 (ligand, human, UniProt P22301 19-178, looked up)
chain: B1 chain with C42Q, I158C
modifications: R4-6 on Cys 158
notes: mature

Binding recovery (>60%): 101%
B18: IL-10 Leu23Cys-R4-6 (ligand, human, UniProt P22301 19-178, looked up)
chain: B1 chain with L23C, C42Q
modifications: R4-6 on Cys 23
notes: mature

Decreased fold of binding to ligand after Conjugating with S48: 15 fold
B19: IL-10 Gly17Cys-S48 (ligand, human, UniProt P22301 19-178, looked up)
chain: B1 chain with G17C, C42Q
modifications: S48 on Cys 17
notes: mature

Binding recovery (>60%): 99.8%
B20: IL-10 Glu50Cys-R4-12 (ligand, human, UniProt P22301 19-178, looked up)
chain: B1 chain with C42Q, E50C
modifications: R4-12 on Cys 50
notes: mature

Binding recovery (>60%): 93.4%
B21: IL-10 Leu26Cys-R4-6 (ligand, human, UniProt P22301 19-178, looked up)
chain: B1 chain with L26C, C42Q
modifications: R4-6 on Cys 26
notes: mature

Binding recovery (>60%): 78%
B22: IL-10 Glu142Cys-R4-12 (ligand, human, UniProt P22301 19-178, looked up)
chain: B1 chain with C42Q, E142C
modifications: R4-12 on Cys 142
notes: mature
